{
  "source": "paper PMC5077151",
  "about": "“Wild-Type U2AF1 Antagonizes the Splicing Program Characteristic of U2AF1-Mutant Tumors and Is Required for Cell Survival”",
  "data": [
    {"molecular_target": "U2AF1 WT;U2AF2;SF1 (Homo sapiens?;Homo sapiens?;Homo …, UniProt Q01081;P26368-2;Q15637 1-193;85-471;1-255, ||)", "sequence (Q01081 1-193, chain 1 of 3)": "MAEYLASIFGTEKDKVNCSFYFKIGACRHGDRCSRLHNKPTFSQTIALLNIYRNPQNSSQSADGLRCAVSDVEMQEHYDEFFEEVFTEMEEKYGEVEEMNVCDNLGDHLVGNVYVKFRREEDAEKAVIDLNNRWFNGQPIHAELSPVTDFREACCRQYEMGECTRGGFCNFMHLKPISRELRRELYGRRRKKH", "sequence (P26368 other isoform, or with tags, fused parts or gaps ||, chain 2 of 3)": "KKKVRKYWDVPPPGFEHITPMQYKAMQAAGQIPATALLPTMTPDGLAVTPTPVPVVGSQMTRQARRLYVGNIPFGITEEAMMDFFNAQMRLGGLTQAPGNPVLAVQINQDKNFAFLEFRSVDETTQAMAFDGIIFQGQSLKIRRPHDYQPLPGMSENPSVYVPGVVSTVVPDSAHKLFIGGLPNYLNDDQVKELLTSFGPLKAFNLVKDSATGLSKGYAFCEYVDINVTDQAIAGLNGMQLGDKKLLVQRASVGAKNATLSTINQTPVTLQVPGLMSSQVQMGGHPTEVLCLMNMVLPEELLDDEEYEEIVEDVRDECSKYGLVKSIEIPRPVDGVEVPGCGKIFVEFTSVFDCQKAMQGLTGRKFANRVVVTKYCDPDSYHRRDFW", "sequence (Q15637 1-255, chain 3 of 3)": "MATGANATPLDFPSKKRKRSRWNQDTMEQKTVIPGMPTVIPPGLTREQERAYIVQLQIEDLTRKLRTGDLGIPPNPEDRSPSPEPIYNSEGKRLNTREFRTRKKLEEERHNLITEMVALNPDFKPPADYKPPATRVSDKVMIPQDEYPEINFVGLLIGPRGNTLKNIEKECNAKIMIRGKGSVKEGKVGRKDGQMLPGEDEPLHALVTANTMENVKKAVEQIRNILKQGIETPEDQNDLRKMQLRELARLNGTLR", "assay": "fluorescence anisotropy; 20 nM 5'-fluorescein RNA, size-exclusion chromatography buffer (composition, pH and temperature not in the material), 384-well plate, 3 replicates", "conditions": "protein: recombinant;recombinant;recombinant; tags: ;;; copies: 1;1;1; label: 5' fluorescein", "units": {"Kd": "nM"}, "values": [
      {"binder": "UUGACUGUCCUUCUCUAUUUUGAAGCCUUCACAGG (ssRNA)", "note": "[CEP164 proximal 3' splice site]", "Kd": "12 ± 1"},
      {"binder": "CAUUUCCUCCUUUUUGCAUUUUCAGGUGACUGU (ssRNA)", "note": "[ZFAND1 distal 3' splice site]", "Kd": "53 ± 4"},
      {"binder": "UCUUCCAUAUCCACCUUUUCCUAAGAUGGCAAG (ssRNA)", "note": "[ATR proximal 3' splice site]", "Kd": "188 ± 52"},
      {"binder": "UUGGUUUUAUGUUUCUUCUUUUUAGGCCAAGAC (ssRNA)", "note": "[ATR distal 3' splice site]", "Kd": "7 ± 0.5"},
      {"binder": "UUUUUCUCAUCUUUAACAGUCACAGUUGCAGAU (ssRNA)", "note": "[FXR1 proximal 3' splice site]", "Kd": "71 ± 6"},
      {"binder": "UGAAAAAGUUGUCUCCCUUUGGCAGGCAAAAGA (ssRNA)", "note": "[FXR1 distal 3' splice site]", "Kd": "41 ± 6"},
      {"binder": "CACUUGUCAUCAUUUUUGUUUCUAGAGUGUCCACA (ssRNA)", "note": "[CEP164 distal 3' splice site]", "Kd": "497 ± 46"},
      {"binder": "GUCUGUUGUCCCUCUGUCCUCAAAGAUGAUCAC (ssRNA)", "note": "[MED15 proximal 3' splice site]", "Kd": "208 ± 35"},
      {"binder": "GCCGGCUGAGCCCCUCCACUUCCAGGUCAGCCA (ssRNA)", "note": "[MED15 distal 3' splice site]", "Kd": "157 ± 25"},
      {"binder": "GUAUAUAACUUUUAACUCUCGAUAGGAACUAAUUC (ssRNA)", "note": "[FMR1 proximal 3' splice site]", "Kd": "188 ± 27"},
      {"binder": "GAAGCAUCAAAUGCUUCUGAAACAGAAUCUGACCA (ssRNA)", "note": "[FMR1 distal 3' splice site]", "Kd": "427 ± 20"},
      {"binder": "UAAACACUUGCUAUUAUUAUUUAAGCCUUGAAC (ssRNA)", "note": "[ZFAND1 proximal 3' splice site]", "Kd": "24 ± 1"}
    ]},
    {"molecular_target": "U2AF1 S34F;U2AF2;SF1 (Homo sapiens?;Homo sapiens?;Homo …, UniProt Q01081;P26368-2;Q15637 1-193;85-471;1-255, S34F||)", "sequence (Q01081 1-193 S34F, chain 1 of 3)": "as the sequence (Q01081 1-193, chain 1 of 3) above, with S34F counted along it", "sequence (P26368 other isoform, or with tags, fused parts or gaps S34F|| | S34F S34F, chain 2 of 3)": "as the sequence (P26368 other isoform, or with tags, fused parts or gaps ||, chain 2 of 3) above", "sequence (Q15637 1-255, chain 3 of 3)": "as the sequence (Q15637 1-255, chain 3 of 3) above", "assay": "fluorescence anisotropy; 20 nM 5'-fluorescein RNA, size-exclusion chromatography buffer (composition, pH and temperature not in the material), 384-well plate, 3 replicates", "conditions": "protein: recombinant;recombinant;recombinant; tags: ;;; copies: 1;1;1; label: 5' fluorescein", "units": {"Kd": "nM"}, "values": [
      {"binder": "UUGACUGUCCUUCUCUAUUUUGAAGCCUUCACAGG (ssRNA)", "note": "[CEP164 proximal 3' splice site]", "Kd": "49 ± 9"},
      {"binder": "CAUUUCCUCCUUUUUGCAUUUUCAGGUGACUGU (ssRNA)", "note": "[ZFAND1 distal 3' splice site]", "Kd": "43 ± 7"},
      {"binder": "UUGGUUUUAUGUUUCUUCUUUUUAGGCCAAGAC (ssRNA)", "note": "[ATR distal 3' splice site]", "Kd": "49 ± 6"},
      {"binder": "UUUUUCUCAUCUUUAACAGUCACAGUUGCAGAU (ssRNA)", "note": "[FXR1 proximal 3' splice site]", "Kd": "38 ± 6"},
      {"binder": "UGAAAAAGUUGUCUCCCUUUGGCAGGCAAAAGA (ssRNA)", "note": "[FXR1 distal 3' splice site]", "Kd": "46 ± 11"},
      {"binder": "CACUUGUCAUCAUUUUUGUUUCUAGAGUGUCCACA (ssRNA)", "note": "[CEP164 distal 3' splice site]", "Kd": "447 ± 63"},
      {"binder": "GUCUGUUGUCCCUCUGUCCUCAAAGAUGAUCAC (ssRNA)", "note": "[MED15 proximal 3' splice site]", "Kd": "483 ± 106"},
      {"binder": "GCCGGCUGAGCCCCUCCACUUCCAGGUCAGCCA (ssRNA)", "note": "[MED15 distal 3' splice site]", "Kd": "32 ± 8"},
      {"binder": "GUAUAUAACUUUUAACUCUCGAUAGGAACUAAUUC (ssRNA)", "note": "[FMR1 proximal 3' splice site]", "Kd": "281 ± 44"},
      {"binder": "GAAGCAUCAAAUGCUUCUGAAACAGAAUCUGACCA (ssRNA)", "note": "[FMR1 distal 3' splice site]", "Kd": "444 ± 58"},
      {"binder": "UAAACACUUGCUAUUAUUAUUUAAGCCUUGAAC (ssRNA)", "note": "[ZFAND1 proximal 3' splice site]", "Kd": "5 ± 1"}
    ]}
  ]
}
